The values that follow come from patent US20230030529A1 (NORDIC BIOSCIENCE A S, published 2023).

T1: Non-sense coating peptide LLARDFEKNY-K-biotin
T1 construct: also called non-sense biotinylated peptide
T1 peptide: LLARDFEKNYK(Biotin)

B1: Selection peptide MGNTGPTGAV (peptide)
peptide: MGNTGPTGAV
notes: also called target peptide
B2: C4-aa^1355 monoclonal antibody (antibody, V domains shown)
VH: QVTLKESGPGILQPSQTLSLTCSFSGFSLTTYNIGVGWIRQSSGKGLEWLAHIWYNDIKYYNTALKSRLTISKDTSNNQVFLKIASVVTADTATYYCARLRPDSFDYWGQGTTLTVSS
VL: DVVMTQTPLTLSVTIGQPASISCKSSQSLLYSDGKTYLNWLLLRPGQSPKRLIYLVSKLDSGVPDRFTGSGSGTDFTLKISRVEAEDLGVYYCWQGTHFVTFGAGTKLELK
notes: It was SULFO-TAG labelled in the ECLIA; also called the monoclonal antibody

The target in assay [1] is B2. Description: competitive C4-aa^1355 ECLIA (peptide in solution against the biotinylated coating peptide). The protocol:
The target sequence was used as the selection peptide ([…] (SEQ ID No. 1)). The immunogenic peptide ([…]-GGC-KLH) was generated by covalently linking the selection peptide to Keyhole Limpet Hemocyanin (KLH) carrier protein with addition of glycine and cysteine residues in between to ensure right linking. A biotinylated peptide ([…]-K-biotin) was used as a coating peptide. The specificity of the antibody was tested by including an elongated peptide ([…] (SEQ ID No. 7)), a truncated peptide ([…] (SEQ ID No. 3)), a non-sense selection peptide ([…] (SEQ ID No. 18)) and a non-sense coating peptide ([…]-K-biotin). To test for potential cross-reactivity to other ECM proteins with similar sequences, three peptides with one amino acid mismatch at either position one ([…] (SEQ ID No. 6)), three ([…] (SEQ ID No. 4)) or four ([…] (SEQ ID No. 5)) from the N-terminal were included in the specificity test. Antibody specificity was calculated as percentage of signal inhibition of two-fold diluted peptides.
During assay development, an optimal incubation buffer, time, temperature and concentrations of antibody and coating peptide were determined and the finalized competitive C4-aa¹³⁵⁵ ECLIA protocol was as follows: A MSD GOLD 96-well streptavidin pre-coated plate (Meso Scale Discovery, cat. no. L15SA-1) was incubated with 150 μl/well blocking buffer (10 mM phosphate-buffered saline (PBS) with bovine serum albumin (BSA) (5% w/v) and bronidox (0.36% v/v), 8 g/L NaCl, pH 7.4) for 60 minutes at 20° C. with shaking (300 rpm) in darkness. The plate was coated with 25 μl/well biotinylated coating peptide dissolved in assay buffer (50 mM PBS with BSA (1% w/v), Tween-20 (0.1% w/v) and bronidox (0.36% v/v), 8 g/L NaCl, pH 7.4) to a concentration at 2 ng/ml and incubated for 60 minutes at 20° C. with shaking (750 rpm) in darkness. Next, 25 μl/well selection peptide, assay controls or pre-diluted serum/plasma sample (1:2) were added followed by immediately addition of 25 μl/well of SULFO-TAG (MSD GOLD SULFO-TAG NHS-Ester Conjugation, Meso Scale Discovery, cat. no. R31AA-1) labelled monoclonal antibody diluted in assay buffer to a final concentration at 25 ng/ml and the plate incubated 20 hours at 4° C. with shaking (300 rpm) in darkness.

In assay [2] the target is B2. Nature of the assay: competitive C4-aa^1355 ECLIA, peptide in solution against the biotinylated coating peptide. The protocol: (§1) During assay development, an optimal incubation buffer, time, temperature and concentrations of antibody and coating peptide were determined and the finalized competitive C4-aa¹³⁵⁵ ECLIA protocol was as follows: A MSD GOLD 96-well streptavidin pre-coated plate (Meso Scale Discovery, cat. no. L15SA-1) was incubated with 150 μl/well blocking buffer (10 mM phosphate-buffered saline (PBS) with bovine serum albumin (BSA) (5% w/v) and bronidox (0.36% v/v), 8 g/L NaCl, pH 7.4) for 60 minutes at 20° C. with shaking (300 rpm) in darkness. The plate was coated with 25 μl/well biotinylated coating peptide dissolved in assay buffer (50 mM PBS with BSA (1% w/v), Tween-20 (0.1% w/v) and bronidox (0.36% v/v), 8 g/L NaCl, pH 7.4) to a concentration at 2 ng/ml and incubated for 60 minutes at 20° C. with shaking (750 rpm) in darkness. […] Finally, 150 μl/well of MSD GOLD Read Buffer (Meso Scale Discovery, cat. no. R92TG-2) was added and the plate was read immediately within 2 minutes in a Sector Imager 6000 (Meso Scale Discovery). SULFO-TAG enabled light emission when electricity was applied, and the light emission data was analyzed using the MSD Discovery Workbench 4.0 software. The analyte concentration was calculated using a 4-parametric curve fit model.
Target sequence in this assay (VL, as listed by the source): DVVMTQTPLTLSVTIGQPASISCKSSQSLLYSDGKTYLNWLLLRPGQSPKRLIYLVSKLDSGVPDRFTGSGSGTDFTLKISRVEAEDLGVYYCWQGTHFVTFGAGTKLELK

The target of assay [3] is T1, Non-sense coating peptide …. Nature of the assay: ECLIA with the non-sense coating peptide on the streptavidin plate. The protocol:
The target sequence was used as the selection peptide ([…] (SEQ ID No. 1)). The immunogenic peptide ([…]-GGC-KLH) was generated by covalently linking the selection peptide to Keyhole Limpet Hemocyanin (KLH) carrier protein with addition of glycine and cysteine residues in between to ensure right linking. A biotinylated peptide ([…]-K-biotin) was used as a coating peptide. The specificity of the antibody was tested by including an elongated peptide ([…] (SEQ ID No. 7)), a truncated peptide ([…] (SEQ ID No. 3)), a non-sense selection peptide ([…] (SEQ ID No. 18)) and a non-sense coating peptide ([…]-K-biotin). […] Antibody specificity was calculated as percentage of signal inhibition of two-fold diluted peptides.
During assay development, an optimal incubation buffer, time, temperature and concentrations of antibody and coating peptide were determined and the finalized competitive C4-aa¹³⁵⁵ ECLIA protocol was as follows: A MSD GOLD 96-well streptavidin pre-coated plate (Meso Scale Discovery, cat. no. L15SA-1) was incubated with 150 μl/well blocking buffer (10 mM phosphate-buffered saline (PBS) with bovine serum albumin (BSA) (5% w/v) and bronidox (0.36% v/v), 8 g/L NaCl, pH 7.4) for 60 minutes at 20° C. with shaking (300 rpm) in darkness. […]

For assay [4], the target named is B1. Description: preliminary competitive ELISA, biotinylated coating peptide on streptavidin plates. The protocol:
Female Balb/C mice of 6-7 weeks of age were immunized subcutaneously with 200 μl emulsified antigen containing 100 μg immunogenic peptide ([…]-GGC-KLH) with Stimune Immunogenic adjuvant (Thermo fisher, cat. no. 7925000) repeatedly every second week until stable titer levels were obtained. The mouse with the highest antibody titer rested for four weeks and was then boosted intraperitoneally with immunogenic peptide. After three days, splenocytes were isolated and fused with murine SP2/0 myeloma cells to produce hybridoma cells as previously described (17). The hybridoma cells were cultured in 96-well microtiter plates and limited dilution was used to secure monoclonal growth. Supernatants from the monoclonal antibody producing hybridoma cells were screened for reactivity against the selection peptide and human serum samples in a preliminary competitive ELISA using biotinylated coating peptide on streptavidin-coated microtiter plates (Roche, cat. no. 11940279). The clone with the best reactivity towards the selection peptide was purified using protein-G-columns according to the manufacturer's instructions (GE Healthcare Life Sciences, cat. no. 17-0404-01).
A general note: In an ELISA, binding on a coated surface is turned into a signal by an enzyme label.

Assay [5] deals with T2, Recombinant type IV collagen alpha2 chain, undigested (without protease) (UniProt P08572 184-1712).
T2 construct: Bought recombinant protein; also called non-digested type IV collagen; type IV collagen α2 chain
T2 sequence (P08572 184-1712): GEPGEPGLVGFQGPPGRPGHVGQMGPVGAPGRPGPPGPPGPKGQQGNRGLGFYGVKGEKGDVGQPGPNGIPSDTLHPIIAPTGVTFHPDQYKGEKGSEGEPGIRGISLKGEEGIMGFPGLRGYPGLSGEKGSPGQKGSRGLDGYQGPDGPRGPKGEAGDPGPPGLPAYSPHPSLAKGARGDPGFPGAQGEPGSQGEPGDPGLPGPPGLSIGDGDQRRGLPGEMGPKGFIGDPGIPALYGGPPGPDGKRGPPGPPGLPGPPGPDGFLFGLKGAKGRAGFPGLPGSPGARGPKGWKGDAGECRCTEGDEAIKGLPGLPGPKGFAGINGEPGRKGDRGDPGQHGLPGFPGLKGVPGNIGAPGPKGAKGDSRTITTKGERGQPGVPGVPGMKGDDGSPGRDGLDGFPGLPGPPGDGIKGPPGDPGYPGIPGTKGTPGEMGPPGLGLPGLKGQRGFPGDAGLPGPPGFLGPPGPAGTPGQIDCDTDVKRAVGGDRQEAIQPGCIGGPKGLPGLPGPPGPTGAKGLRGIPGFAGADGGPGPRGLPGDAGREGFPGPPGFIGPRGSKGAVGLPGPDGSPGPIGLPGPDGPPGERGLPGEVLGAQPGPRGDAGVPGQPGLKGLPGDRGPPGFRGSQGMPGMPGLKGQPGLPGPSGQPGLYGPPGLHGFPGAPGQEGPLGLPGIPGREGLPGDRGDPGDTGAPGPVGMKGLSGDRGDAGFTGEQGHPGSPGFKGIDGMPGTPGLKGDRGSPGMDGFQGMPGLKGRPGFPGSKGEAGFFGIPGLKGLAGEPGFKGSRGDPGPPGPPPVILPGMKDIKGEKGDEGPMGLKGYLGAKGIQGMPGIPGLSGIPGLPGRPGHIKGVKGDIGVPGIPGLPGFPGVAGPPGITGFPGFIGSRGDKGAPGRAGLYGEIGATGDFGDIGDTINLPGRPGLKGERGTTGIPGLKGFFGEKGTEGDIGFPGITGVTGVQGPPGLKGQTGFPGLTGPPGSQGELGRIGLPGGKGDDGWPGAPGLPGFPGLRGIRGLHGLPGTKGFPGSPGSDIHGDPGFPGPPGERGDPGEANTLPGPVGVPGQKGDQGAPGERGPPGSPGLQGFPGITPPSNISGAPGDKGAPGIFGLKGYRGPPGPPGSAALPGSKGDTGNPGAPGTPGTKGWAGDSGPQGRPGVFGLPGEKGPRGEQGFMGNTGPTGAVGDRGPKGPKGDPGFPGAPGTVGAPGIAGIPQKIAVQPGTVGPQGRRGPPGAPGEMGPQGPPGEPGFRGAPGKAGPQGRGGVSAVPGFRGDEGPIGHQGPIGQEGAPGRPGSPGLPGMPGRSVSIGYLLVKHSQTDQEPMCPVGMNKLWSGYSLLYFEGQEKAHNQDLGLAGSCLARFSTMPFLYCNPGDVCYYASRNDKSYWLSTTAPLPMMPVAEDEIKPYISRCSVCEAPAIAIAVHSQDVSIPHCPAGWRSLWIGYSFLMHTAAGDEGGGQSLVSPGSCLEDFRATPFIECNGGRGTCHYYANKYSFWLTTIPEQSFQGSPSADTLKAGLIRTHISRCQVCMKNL
Description: competitive C4-aa^1355 ECLIA on the collagen sample. On the procedure: as §1, with “darkness.” for “darkness. The plate was coated with 25 μl/well biotinylated coating peptide dissolved in assay buffer (50 mM PBS with BSA (1% w/v), Tween-20 (0.1% w/v) and bronidox (0.36% v/v), 8 g/L NaCl, pH 7.4) to a concentration at 2 ng/ml and incubated for 60 minutes at 20° C. with shaking (750 rpm) in darkness.”
To confirm that the C4-aa¹³⁵⁵ antibody/assay recognized a protease generated type IV collagen neo-epitope, C4-aa¹³⁵⁵ was measured in non-digested, MMP-9 digested and GzB digested type IV collagen.

Ends that are not written are not given here. * marks the point of attachment. Biotin = O=C1N[C@H]2[C@H](CS[C@H]2CCCCC(=O)*)N1

As for GNTGPTGAV [Truncated peptide GNTGPTGAV], the binding result in assay [1] was “no binding”.
On the same count and under the same terms, the entry for FMGNTGPTGAV [Elongated peptide FMGNTGPTGAV] is “no binding”.
B1: the binding result in assay [2] is “binds”.
QGNTGPTGAV (also called Deselection 3) [Deselection peptide 3 QGNTGPTGAV]: in assay [1], the binding result is “no binding (tested: 0-30 ng/ml)”.
Still for that read-out and setting: under MGQTGPTGAV (also called Deselection 1) [Deselection peptide 1 MGQTGPTGAV] stands “no binding (tested: 0-30 ng/ml)”; under LLARDFEKNY [Non-sense selection peptide LLARDFEKNY], “no binding”.
For the molecule B2, the results for the binding result in assay [3], in assay [4] and in assay [5] were “no binding”, “binds” and “no binding”, respectively.
